The record followed here is patent US20230312744A1, “Modulatory Substance of Tumor Immune Microenvironment, and Preventive, Diagnostic and/or Therapeutic Utilization of the Same” (The University Of Tokyo, priority 2020, published 2023).

This test deals with T1, mouse TCTP (Mus musculus, UniProt P63028).
T1 construct: preparing the whole cell lysate of TCTP WT SL4 cells (WT) or TCTP KO SL4 cells (KO), followed by immunoblotting; endogenous in cells; host or cells: SL4 mouse colon carcinoma cells (TCTP WT; TCTP KO as negative control)
T1 sequence (P63028 1-172): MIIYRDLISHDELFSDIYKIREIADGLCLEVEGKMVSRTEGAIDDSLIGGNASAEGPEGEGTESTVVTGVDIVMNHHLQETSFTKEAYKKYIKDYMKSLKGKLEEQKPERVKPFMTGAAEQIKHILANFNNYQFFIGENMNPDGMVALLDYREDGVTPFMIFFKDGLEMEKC
Kind of test: Immunoblotting of whole cell lysate of TCTP WT / TCTP KO SL4 cells using the 55F3 monoclonal antibody. The class given is binding. The following applies: lysate of TCTP WT vs TCTP KO SL4 cells, FIG. 12(a). The procedure:
In FIG. 12(b), PECs (2×10^5 cells) were stimulated with a supernatant of dead SL4 cells comprising the 55F3 antibody or control IgG. After the stimulation for 2 hours, the expressed Cxcl1 mRNA was quantified by RT-qPCR. n=3, and Sup: culture supernatant. In FIG. 12(c), TCTP WT SL4 cells or TCTP KO SL4 cells ([…]) were subcutaneously transplanted into C57BL/6 mice. After the transplantation, DHA (50 mg/kg) or DMSO was intraperitoneally administered to the mice every day (n=6). In FIG. 12(d), (left view) the expression level of TCTP in the interstitial area of normal large intestinal tissues was compared with the expression level of TCTP in the interstitial area of colorectal cancer tissues. In FIG. 12(d), (right view) a normal colon crypt was compared with a neoplastic lesion. […] Spearman r: spearman correlation coefficients. *P<0.05, **P<0.01. Regarding FIG. 12(b), repeated measures one-way ANOVA with Dunnett's multiple comparisons test. Regarding FIG. 12(c), repeated measures one-way ANOVA with Tukey's multiple comparisons test. […]
Immunoblot analysis was performed according to the previous report (Inoue et al., Nature 434, 243-249, doi: 10.1038/nature03308 (2005)). β-Actin (cat# A5441) was purchased from Sigma-Aldrich. […] Immunoblotting signals were detected by FUSION Solo S (Vilber-Lourmat), and were then analyzed by FUSION Capt Advanced software (Vilber-Lourmat). […]

B1: 55F3: Mouse monoclonal antibody against human TCTP peptide SEQ ID NO: 25; CDRs SEQ ID NO: 1-6, VH SEQ ID NO: 19, VL SEQ ID NO: 22 (antibody, listed as Mus musculus)
VH: MRVLILLWLFTAFPGILSDVQLQESGPGLVKPSQSLSLTCTATGYSIASDYAWNWIRQFPGNKLEWMGYINYSGSTGYNPSLKSRISITRDTSKNQFFLQLNSVTTEDTATYYCARFEAGYWGQGTTLTVSSAKTTPPSVYPLAPGSAAQTNSMVTLGCLVKGYFPEPVT
VL: MDMRTPAQFLGILLLWFPGIKCDIKMTQSPSSMSASLGERVTITCKASQDINRYLSWFQQKPGKSPKTLIYRANRLVDGVPSRFSGSGSGQDYSLTISSLEYGDMGIYYCLQYNEFPLTFGAGTKLELKRADAAPTVSIFPPSSEQLTSGGASVVCFLN
As for B1, the “species crossing property to mouse TCTP” value is “has species crossing property to mouse TCTP”.
